How the values were obtained:
[1] = target: neutral lactase (GODO-YNL2; unfragmented high molecular fraction F-1, about 120 kDa), P00723
neutral lactase (GODO-YNL2; unfragmented high molecular fraction F-1, about 120 kDa), P00723, sequence (P00723 whole entry, the tested form may be a part): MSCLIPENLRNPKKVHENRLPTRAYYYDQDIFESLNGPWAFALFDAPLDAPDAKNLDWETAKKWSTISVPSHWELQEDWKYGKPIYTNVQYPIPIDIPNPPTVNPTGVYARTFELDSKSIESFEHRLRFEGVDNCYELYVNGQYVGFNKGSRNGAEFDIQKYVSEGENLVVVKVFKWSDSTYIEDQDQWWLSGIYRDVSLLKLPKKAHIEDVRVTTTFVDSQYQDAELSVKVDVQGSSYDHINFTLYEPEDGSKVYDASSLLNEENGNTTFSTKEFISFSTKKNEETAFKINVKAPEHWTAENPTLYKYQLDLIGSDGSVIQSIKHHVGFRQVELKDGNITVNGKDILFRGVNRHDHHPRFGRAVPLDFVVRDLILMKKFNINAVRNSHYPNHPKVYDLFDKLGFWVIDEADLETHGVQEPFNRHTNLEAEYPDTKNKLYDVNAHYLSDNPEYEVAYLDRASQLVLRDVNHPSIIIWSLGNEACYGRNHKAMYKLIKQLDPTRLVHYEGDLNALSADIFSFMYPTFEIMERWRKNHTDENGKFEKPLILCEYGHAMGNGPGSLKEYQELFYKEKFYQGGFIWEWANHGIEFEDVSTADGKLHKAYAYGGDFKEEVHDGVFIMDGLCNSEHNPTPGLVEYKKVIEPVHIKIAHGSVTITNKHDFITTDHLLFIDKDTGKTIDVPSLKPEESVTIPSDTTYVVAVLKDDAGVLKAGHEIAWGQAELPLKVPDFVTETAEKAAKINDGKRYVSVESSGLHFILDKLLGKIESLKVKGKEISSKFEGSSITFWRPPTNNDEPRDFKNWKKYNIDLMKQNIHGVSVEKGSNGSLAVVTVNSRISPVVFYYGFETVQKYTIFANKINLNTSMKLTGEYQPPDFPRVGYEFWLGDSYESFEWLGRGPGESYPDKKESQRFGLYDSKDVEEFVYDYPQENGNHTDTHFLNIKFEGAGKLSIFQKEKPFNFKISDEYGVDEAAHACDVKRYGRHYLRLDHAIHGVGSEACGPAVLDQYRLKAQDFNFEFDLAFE

BSA, P02769, sequence (P02769 25-607): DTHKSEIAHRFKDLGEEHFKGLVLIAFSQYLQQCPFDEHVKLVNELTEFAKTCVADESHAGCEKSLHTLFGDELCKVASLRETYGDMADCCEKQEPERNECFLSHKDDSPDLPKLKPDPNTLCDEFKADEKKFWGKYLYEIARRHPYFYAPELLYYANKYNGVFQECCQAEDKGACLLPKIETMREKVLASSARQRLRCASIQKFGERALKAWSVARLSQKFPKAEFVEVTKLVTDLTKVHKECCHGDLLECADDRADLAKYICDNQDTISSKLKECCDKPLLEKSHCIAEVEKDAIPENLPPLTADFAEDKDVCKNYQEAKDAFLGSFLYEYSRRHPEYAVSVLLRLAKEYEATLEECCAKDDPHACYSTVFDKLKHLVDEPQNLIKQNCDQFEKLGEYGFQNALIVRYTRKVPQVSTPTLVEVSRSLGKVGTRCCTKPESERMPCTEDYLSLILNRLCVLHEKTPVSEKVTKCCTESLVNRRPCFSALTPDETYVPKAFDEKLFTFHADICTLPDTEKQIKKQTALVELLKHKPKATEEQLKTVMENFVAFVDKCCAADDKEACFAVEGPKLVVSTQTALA

B1: proteinase B derived from Kluyveromyces lactis (mature enzyme) (protein)
chain: SFNTQNSAPWGLARISHREKLNLGSFNKYLYDDDAGKGVTAYVVDTGVNVNHKDFDGRAVWGKTIPKDDPDVDGNGHGTHCAGTIGSVHYGVAKNADIVAVKVLRSNGSGTMSDVVKGVEYVAEAHKKAVEEQKKGFKGSTANMSLGGGKSPALDLAVNAAVKAGVHFAVAAGNENQDACNTSPAAAENAITVGASTLSDERAYFSNWGKCVDIFGPGLNILSTYIGSDTATATLSGTSMATPHVVGLLTYFLSLQPDADSEYFHAAGGITPSQLKKKLIDFSTKNVLSDLPEDTVNY
SUBSTRATE SPECIFICITY (relative protease activity, K. lactis PrB) (Azocasein): 1 | SUBSTRATE SPECIFICITY (relative protease activity, K. lactis PrB) (Azocoll): 1.9 | SUBSTRATE SPECIFICITY (relative protease activity, K. lactis PrB) (BSA, P02769): 0 | SUBSTRATE SPECIFICITY (relative protease activity, K. lactis PrB) (Casein): 0 | SUBSTRATE SPECIFICITY (relative protease activity, K. lactis PrB) (FITC-casein): 78 | SUBSTRATE SPECIFICITY (relative protease activity, K. lactis PrB) [1]: 1160

Reference: US20190075806
